Data set [1] concerns the molecule itself. In words: SEC-MALS; physiological pH 7.4; buffer not stated. On the technique in general: In gel filtration, larger molecules generally elute earlier.
Data set [2] concerns the molecule itself. In words: SEC-MALS; 50 mM sodium acetate pH 4.5, 100 mM NaCl, 1 mM TCEP.
Data set [3] deals with the molecule itself. Briefly: SEC-MALS; 50 mM Tris pH 8.0, 100 mM NaCl, 1 mM TCEP; 1-3 mg/ml injected; Superdex 200 Increase or Superose 6 Increase.
The target of data set [4] is T1, R-BiP peptide (REEEDK–FITC).
T1 construct: Arg attached to the new N-terminus of cleaved BiP (N-terminal arginylation, R*); BiP/GRP78 from E19 (E19b-E20b-E21b-D22b printed); also called FITC-labeled R-BiP peptide; FITC-labeled R-BiP/GRP78 peptide
T1 peptide: REEEDK-{FITC′}
Briefly: fluorescence polarisation; FITC-labeled peptide 100 nM, p62 construct titrated 400 nM to 3 mM; 50 mM Tris pH 8.0, 100 mM NaCl, 1 mM DTT; 384-well. The conditions noted are these: both partners purified.

Residue numbers refer to the chain shown, from its start. Primed or numbered codes have the meaning given here. No end group written: not given here. FITC′ = fluorescein isothiocyanate label

B1: MBP-fused PB1-ZZ of p62 (residues 1-181) wild type (domain or fragment)
chain: not shown
notes: p62/SQSTM1, human, PB1-ZZ residues 1-181; Oligomeric state depends on pH (hexameric or higher at pH 8.0, polymer at pH 6.0, about a trimer at pH 4.5); also called MBP-PB1-ZZ WT; PB1-ZZ WT
As to B1, the stoichiometry N (usually the number of molecules, sites or subunits per partner or assembly) in data set [1] was at least 10; in data set [2], around 3; in data set [3], at least 6.

B2: MBP-PB1-ZZ K7A (domain or fragment)
chain: not shown
notes: p62/SQSTM1, human, PB1-ZZ residues 1-181; also called monomeric PB1-ZZ mutant
For the molecule B2, the “fold higher affinity of PB1-ZZ WT than of this mutant” value in data set [4] is above 10 fold.

B3: MBP-PB1-ZZ D149R (domain or fragment, human, UniProt Q13501 1-181, looked up)
chain: MASLTVKAYLLGKEDAAREIRRFSFCCSPEPEAEAEAAAGPGPCERLLSRVAALFPALRPGGFQAHYRDEDGDLVAFSSDEELTMAMSYVKDDIFRIYIKEKKECRRDHRPPCAQEAPRNMVHPNVICDGCNGPVVGTRYKCSVCPDYRLCSVCEGKGLHRGHTKLAFPSPFGHLSEGFSH
notes: p62/SQSTM1, human, PB1-ZZ residues 1-181
Turning to B3, the “fold reduction of affinity against WT” value in data set [4] was around 30 fold.

B4: MBP-PB1-ZZ N132L (domain or fragment)
chain: not shown
notes: as for B3
B4: the “fold reduction of affinity against WT” value in data set [4] was around 30 fold.

B5: MBP-PB1-ZZ D69A (domain or fragment)
chain: not shown
notes: as for B2
Take B5: the “fold higher affinity of PB1-ZZ WT than of this mutant” value in data set [4] is above 10 fold.

B6: MBP-PB1-ZZ D129N (domain or fragment, human, UniProt Q13501 1-181, looked up)
chain: B3 chain with D129N, R149D
notes: as for B3
In the case of B6, in data set [4], the “fold reduction of affinity against WT” value is around 30 fold.

B7: MBP-PB1-ZZ D147R (domain or fragment, human, UniProt Q13501 1-181, looked up)
chain: B3 chain with D147R, R149D
notes: as for B3
For B7, in data set [4], the “fold reduction of affinity against WT” value is around 30 fold.

B8: Flag-ZZ (ZZ-domain of p62 with the flag-tag) (domain or fragment)
chain: not shown
For B8, the dissociation constant Kd (usually the constant that tells how readily two partners part at equilibrium) in data set [4] is above 800 µM.

These data come from article PMC6098011, “Insights into degradation mechanism of N-end rule substrates by p62/SQSTM1 autophagy adapter” (Nature Communications, 2018).
